The text below walks through data of patent publication US20200325187A1 (Genentech, published 2020).

This assay concerns the target T1, hVEGF-A (8-109) (human, UniProt P15692 214-315).
T1 sequence (looked up): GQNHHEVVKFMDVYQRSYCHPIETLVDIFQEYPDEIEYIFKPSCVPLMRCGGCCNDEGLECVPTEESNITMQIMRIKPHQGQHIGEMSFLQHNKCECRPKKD
Put plainly: spot phage ELISA. On the technique in general: ELISA stands for enzyme-linked immunosorbent assay.
In the case of GCNIMLPFWGCGRDFECLAGCVCQYYQSCGFH (designed binder) [9.54.90-2x28], the binding result is recorded as “binds”.
To GCNIMLPFWGCGRDFECLAGCVCQYYQSCGTR (designed binder) [9.54.90-2x36] belongs “binds”; to GCNIMLPFWGCGRDFECLAGCVCQYYQSCGVH (designed binder) [9.54.90-2x90], “binds”; to GCNIMLPFWGCGRDFECLAGCVCQYYQSCGLS (designed binder) [9.54.90-2x42], “binds”.
Take GCDVLQPYWGCGPDIDCLSNCICHWYNSCGRL (designed binder) [63.12.12.M5L.2x21]: the binding result is recorded as “binds”.
The result for GCDVLQPYWGCGPDIDCLSNCICHWYNSCGDE (designed binder) [63.12.12.M5L.2x25] reads “binds”.
Consider GCDVLQPYWGCGPDIDCLSNCICHWYNSCGEQ (designed binder) [63.12.12.M5L.2x12], for which the binding result was “binds”.
The result for GCDVLQPYWGCGPDIDCLSNCICHWYNSCGQF (designed binder) [63.12.12.M5L.2x69] reads “binds”; that for GCDVLQPYWGCGPDIDCLSNCICHWYNSCGPL (designed binder) [63.12.12.M5L.2x48], “binds”; that for GCDVLQPYWGCGPDIDCLSNCICHWYNSCGWK (designed binder) [63.12.12.M5L.2x77], “binds”.
Take GCDVLQPYWGCGPDIDCLSNCICHWYNSCGPT (designed binder) [63.12.12.M5L.2x30]: the binding result is “binds”.
For GCDVLQPYWGCGPDIDCLSNCICHWYNSCGSL (designed binder) [63.12.12.M5L.2x29], the binding result is “binds”.
To GCDVLQPYWGCGPDIDCLSNCICHWYNSCGRT (designed binder) [63.12.12.M5L.2x2] belongs “binds”; to GCNIMLPFWGCGRDFECLAGCVCQYYQSCGPLQ (designed binder) [9.54.90-3x49], “binds”.
To GCNIMLPFWGCGRDFECLAGCVCQYYQSCGPHQ (designed binder) [9.54.90-3x33] belongs “binds”; to GCNIMLPFWGCGRDFECLAGCVCQYYQSCGWPH (designed binder) [9.54.90-3x13], “binds”.
To GCNIMLPFWGCGRDFECLAGCVCQYYQSCGYLS (designed binder) [9.54.90-3x88] belongs “binds”; to GCNIMLPFWGCGRDFECLAGCVCQYYQSCGEHK (designed binder) [9.54.90-3x42], “binds”.
GCNIMLPFWGCGRDFECLAGCVCQYYQSCGDLV (designed binder) [9.54.90-3x91]: the binding result was “binds”.
The result for GCNIMLPFWGCGRDFECLAGCVCQYYQSCGTFQ (designed binder) [9.54.90-3x10] reads “binds”; that for GCNIMLPFWGCGRDFECLAGCVCQYYQSCGWDY (designed binder) [9.54.90-3x9], “binds”; that for GCNIMLPFWGCGRDFECLAGCVCQYYQSCGNYQ (designed binder) [9.54.90-3X50], “binds”.
To GCNIMLPFWGCGRDFECLAGCVCQYYQSCGPLI (designed binder) [9.54.90-3X83] belongs “binds”; to GCDVMQPYWGCEMDFDCLAGCVCHWYNSCGSL (designed binder) [9.63-36], “binds”; to GCDVMQPYWGCKQDSDCLAGCVCHWYNSCGEN (designed binder) [9.63-62], “binds”.
To GCDVMQPYWGCEMDFDCLAGCVCHWYNSCGNS (designed binder) [9.63.44-80] belongs “binds”; to GCDVMQPYWGCEMDFDCLAGCVCHWYNSCGRL (designed binder) [9.63-21], “binds”.
For GCDVMQPYWGCEMDFDCLAGCVCHWYNSCGGK (designed binder) [9.63-7], the binding result is “binds”.
Take GCDVMQPYWGCKQDFDCLAGCVCHWYNSCGPS (designed binder) [9.63-1]: the binding result is listed as “binds”.
The result for GCDVMQPYWGCEMDFDCLAGCVCHWYNSCGST (designed binder) [9.63.44-41] reads “binds”; that for GCDVMQPYWGCEMDFDCLAGCVCHWYNSCGDL (designed binder) [9.63-16], “binds”.
The result for GCDVMQPYWGCEMDFDCLAGCVCHWYNSCGNN (designed binder) [9.63-65] reads “binds”.
Consider GCDVMQPYWGCEMDFDCLAGCICHWYNSCGRT (designed binder) [9.63.44-2-A], for which the binding result is listed as “binds”.
The result for GCDVMQPYWGCEMDFDCLAGCICHWYNSCGDE (designed binder) [9.63-93] reads “binds”; that for GCDVMQPYWGCEMDFDCLAGCVCHWYNSCGWD (designed binder) [9.63-40], “binds”.
To GCDVMQPYWGCEMDFDCLAGCVCHWYNSCGND (designed binder) [9.63-77] belongs “binds”.
To GCDVMQPYWGCEMDFDCLAGCICHWYNSCGRP (designed binder) [9.63-74] belongs “binds”; to GCDVMQPYWGCEMDFDCLAGCVCHWYNSCGFN (designed binder) [9.63.44-73], “binds”.
For GCDVMQPYWGCEMDFDCLAGCICHWYNSCGPT (designed binder) [9.63-30], the binding result was “binds”.
The result for GCDVMQPYWGCEMDFDCLAGCICHWYNSCGTR (designed binder) [9.63-61] reads “binds”; that for GCDVMQPYWGCEMDFDCLAGCVCHWYNSCGVN (designed binder) [9.63.44-14 (SEQ ID NO: 514)], “binds”; that for GCDVMQPYWGCEMDFDCLAGCVCHWYNSCGRY (designed binder) [9.63.44-82], “binds”.
The result for GCDVMQPYWGCEMDFDCLAGCICHWYNSCGAS (designed binder) [9.63-23] reads “binds”; that for GCDVMQPYWGCEIDFDCLAGCVCHWYNSCGQV (designed binder) [9.63.44-55], “binds”; that for GCDVMQPYWGCEMDFDCLAGCVCHWYNSCGEP (designed binder) [9.63.44-16], “binds”.
The result for GCDVMQPYWGCEMDFDCLAGCVCHWYNSCGTP (designed binder) [9.63.44-44] reads “binds”; that for GCDVMQPYWGCKQDSDCLAGCICHWYNSCGTD (designed binder) [9.63-19], “binds”; that for GCDVMQPYWGCEMDFDCLAGCVCHWYNSCGSM (designed binder) [9.63-45], “binds”.
With GCDVMQPYWGCEMDFDCLAGCICHWYNSCGPE (designed binder) [9.63-66], the binding result is on record as “binds”.
Regarding GCDVMQPYWGCEMDFDCLAGCVCHWYNSCGEK (designed binder) [9.63-17], the binding result is listed as “binds”.
The result for GCDVMQPYWGCKQDFDCLAGCICHWYNSCGYL (designed binder) [9.63-10] reads “binds”.
On to GCDVMQPYWGCEMDFDCLAGCVCHWYNSCGGQ (designed binder) [9.63.44-19], for which the binding result is “binds”.
As for GCDVMQPYWGCEMDFDCLAGCVCHWYNSCGVE (designed binder) [9.63-68], the binding result was “binds”.
The result for GCDVMQPYWGCEMDFDCLAGCVCHWYNSCGYM (designed binder) [9.63.44-54] reads “binds”.
